Experimental data: the supplement of paper PMC7877785
± gives the uncertainty stated by the source.

Experiment: self-splicing fitness, log relative to wild type (ln ratio); higher = more splicing; Tetrahymena group I intron in knt gene, E. coli kanamycin selection, DiMSum; sequences stand for … in CUCUCU…GGAGGGAAAAGUUAUCAGGCAUGCACCUGGUAGCUAGUCUUUAAACCAAUAGAUUGCAUCGGUUUAAAAGGCAAGACCGUCAAAUUGCGGGAAAGGGGUCAACAGCCGUUCAGUACCAAGUCUCAGGGGAAACUUUGAGAUGGCCUUGCAAAGGGUAUGGUAAUAAGCUGACGGACAUGGUCCUAACCACGCAGCCAAGUCCUAAGUCAACAGAUCUUCUGUUGAUAUGGAUGCAGUUCACAGACUAAAUGUCGGUCGGGGAAGAUGUAUUCUUCUCAUAAGAUAUAGUCGGACCUCUCCUUAAUGGGAGCUAGCGGAUGAAGUGAUGCAACACUGGAGCCGCUGGGAACUAAUUUGUAUGCGAAAGUAUAUUGAUUAGUUUUGGAGUACUCGUGGUCG
Summary of the method: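 Library with all eight P1ex-region intron nucleotides randomised, intron inside the knt kanamycin-resistance gene on pET-22b(+), in E. coli BL21(DE3). Cells grew overnight at 37°C or 30°C on LB agar with or without 25 μg/mL kanamycin (plus 100 μg/mL carbenicillin, 50 μM IPTG, 0.2% rhamnose), in six replicate transformations. Pooled colonies were amplicon-sequenced on Illumina HiSeq 2500. DiMSum fitness is the error-weighted combination of wild-type-normalised replicate fold changes, kanamycin versus none.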

Sequence	self-splicing fitness (ln) (37 °C)	self-splicing fitness (ln) (30 °C)
CCGUAGCAAUAUUACGUCAA	-1.2 ± 0.27	–
CCGUAGCAAUAUUACGUCGC	-1.77 ± 0.26	-3.45 ± 0.41
CCGUAGCAAUAUUACGUGAA	-2.34 ± 0.18	-3.73 ± 0.18
CCGUAGCAAUAUUACGUGGG	-3.05 ± 0.17	-4.15 ± 0.2
CCUAAGCAAUAUUACGAAAU	-2.77 ± 0.29	-2.79 ± 0.18
CCUAAGCAAUAUUACGAACA	-1.96 ± 0.32	-3.01 ± 0.29
CCUAAGCAAUAUUACGAAGU	-1.21 ± 0.13	-2.62 ± 0.13
CCUAAGCAAUAUUACGACAC	-2.03 ± 0.29	-3.33 ± 0.44
CCUAAGCAAUAUUACGAGCG	-0.11 ± 0.11	-0.823 ± 0.097
CCUAAGCAAUAUUACGAUCC	–	-3.83 ± 0.29
CCUAAGCAAUAUUACGCGUU	-2.69 ± 0.16	-3.27 ± 0.15
CCUAAGCAAUAUUACGCUAA	-2.31 ± 0.27	–
CCUAAGCAAUAUUACGCUUC	–	-3.16 ± 0.28
CCUAAGCAAUAUUACGGGAA	-1.83 ± 0.2	-3.52 ± 0.22
CCUAAGCAAUAUUACGGGAU	-3.29 ± 0.21	-4.35 ± 0.22
CCUAAGCAAUAUUACGGGCU	-2.46 ± 0.33	-3.03 ± 0.33
CCUAAGCAAUAUUACGGUCG	-0.252 ± 0.086	-0.889 ± 0.065
CCUAAGCAAUAUUACGGUGA	-2.28 ± 0.16	-3.89 ± 0.25
CCUAAGCAAUAUUACGGUUU	-3.07 ± 0.34	-4.49 ± 0.34
CCUAAGCAAUAUUACGUAUG	-0.95 ± 0.087	-1.82 ± 0.082
CCUAAGCAAUAUUACGUGGG	-2.5 ± 0.15	-3.51 ± 0.16
CCUAAGCAAUAUUACGUUAG	-2.03 ± 0.11	-1.95 ± 0.11
CCUCAGCAAUAUUACGAAAA	-2.26 ± 0.33	-2.77 ± 0.22
CCUCAGCAAUAUUACGAACU	-1.64 ± 0.38	-2.63 ± 0.37
CCUCAGCAAUAUUACGAAGG	-1.84 ± 0.4	-3.6 ± 0.34
CCUCAGCAAUAUUACGAAGU	-1.88 ± 0.15	-3.54 ± 0.17
CCUCAGCAAUAUUACGACGU	-2.68 ± 0.24	-3.17 ± 0.18

Sequence	self-splicing fitness (ln) (37 °C)	self-splicing fitness (ln) (30 °C)
CCUCAGCAAUAUUACGACUC	–	-3.68 ± 0.43
CCUCAGCAAUAUUACGAGGA	-1.09 ± 0.14	-2.54 ± 0.29
CCUCAGCAAUAUUACGAUCG	-0.00907 ± 0.14	-0.809 ± 0.1
CCUCAGCAAUAUUACGCAGA	-2.27 ± 0.33	-3.39 ± 0.34
CCUCAGCAAUAUUACGCCUA	-1.6 ± 0.2	-2.6 ± 0.21
CCUCAGCAAUAUUACGCGUU	-2.96 ± 0.4	-3.88 ± 0.23
CCUCAGCAAUAUUACGCUAC	–	-1.66 ± 0.33
CCUCAGCAAUAUUACGCUCA	-1.74 ± 0.22	-2.6 ± 0.39
CCUCAGCAAUAUUACGGAUG	-0.682 ± 0.087	-0.811 ± 0.066
CCUCAGCAAUAUUACGGCCU	-1.59 ± 0.29	-4.16 ± 0.39
CCUCAGCAAUAUUACGGGAA	-3.35 ± 0.3	-2.4 ± 0.19
CCUCAGCAAUAUUACGGGUC	-2.56 ± 0.36	-2.5 ± 0.27
CCUCAGCAAUAUUACGGUCU	-2.56 ± 0.27	-3.73 ± 0.25
CCUCAGCAAUAUUACGUAAC	-2.13 ± 0.47	–
CCUCAGCAAUAUUACGUCGU	-2.82 ± 0.24	-3.24 ± 0.15
CCUCAGCAAUAUUACGUCUC	–	-3.73 ± 0.24
CCUCAGCAAUAUUACGUCUU	-2.55 ± 0.26	-3.91 ± 0.27
CCUCAGCAAUAUUACGUGCU	-2.62 ± 0.39	-3.84 ± 0.33
CCUCAGCAAUAUUACGUGGC	-3.01 ± 0.24	-3.94 ± 0.22
CCUGAGCAAUAUUACGACUU	-2.46 ± 0.24	-3.87 ± 0.27
CCUGAGCAAUAUUACGAUGA	-1.44 ± 0.18	-2.57 ± 0.2
CCUGAGCAAUAUUACGAUGG	-2.58 ± 0.19	-4.46 ± 0.21
CCUGAGCAAUAUUACGCCAU	-2.13 ± 0.33	-3.2 ± 0.4
CCUGAGCAAUAUUACGGCAA	-2.42 ± 0.21	-2.14 ± 0.22
CCUGAGCAAUAUUACGGCCA	-2.05 ± 0.29	-2.01 ± 0.34
CCUGAGCAAUAUUACGGGCA	-1.83 ± 0.17	-2.93 ± 0.19
CCUGAGCAAUAUUACGGGCG	-2.1 ± 0.18	-2.62 ± 0.23

Sequence	self-splicing fitness (ln) (37 °C)	self-splicing fitness (ln) (30 °C)
CCUGAGCAAUAUUACGGGGA	-3.37 ± 0.2	-3.07 ± 0.15
CCUGAGCAAUAUUACGUAGC	-1.77 ± 0.16	-4.49 ± 0.27
CCUGAGCAAUAUUACGUCAA	-2.36 ± 0.3	-2.73 ± 0.22
CCUGAGCAAUAUUACGUCCA	–	-1.86 ± 0.28
CCUGAGCAAUAUUACGUCGC	-2.54 ± 0.39	–
CCUGAGCAAUAUUACGUCUU	-2.42 ± 0.23	–
CCUGAGCAAUAUUACGUGAG	-2.28 ± 0.24	-3.61 ± 0.27
CCUGAGCAAUAUUACGUGUU	-2.52 ± 0.17	-4.7 ± 0.34
CCUUAGCAAUAUUACGAAAU	-2.12 ± 0.31	-3.26 ± 0.29
CCUUAGCAAUAUUACGAACA	-0.92 ± 0.29	–
CCUUAGCAAUAUUACGAAUC	-1.38 ± 0.34	-2.65 ± 0.36
CCUUAGCAAUAUUACGACGG	-2.95 ± 0.3	-2.31 ± 0.17
CCUUAGCAAUAUUACGCAAA	-2.89 ± 0.34	–
CCUUAGCAAUAUUACGCGUA	-2.54 ± 0.36	-3.27 ± 0.38
CCUUAGCAAUAUUACGCGUC	-2.91 ± 0.31	-4.42 ± 0.39
CCUUAGCAAUAUUACGCUCG	-1.73 ± 0.27	–
CCUUAGCAAUAUUACGGAAU	-3.15 ± 0.3	-3.53 ± 0.2
CCUUAGCAAUAUUACGGACA	–	-2.53 ± 0.32
CCUUAGCAAUAUUACGGUAU	-2.67 ± 0.36	-3.64 ± 0.33
CCUUAGCAAUAUUACGGUCA	-3.63 ± 0.37	–
CCUUAGCAAUAUUACGGUCC	-3.04 ± 0.35	-3.5 ± 0.46
CCUUAGCAAUAUUACGUAUG	-0.234 ± 0.12	-2.98 ± 0.19
CCUUAGCAAUAUUACGUCCU	-2.65 ± 0.38	-2.36 ± 0.17
CCUUAGCAAUAUUACGUGUA	-1.47 ± 0.15	-4.28 ± 0.43
CCUUAGCAAUAUUACGUGUU	-3.25 ± 0.21	-4.69 ± 0.32
CCUUAGCAAUAUUACGUUGG	-3.32 ± 0.26	-3.71 ± 0.21
